Values quoted from earlier work in paper PMC8508339.

Experiments:
[1] = target: cholecystokinin (Homo sapiens) (UniProt P06307)
gastrin (Homo sapiens) = gastrin (Homo sapiens) (UniProt P01350)
Chain of UniProt P01350 (P01350 whole entry, looked up): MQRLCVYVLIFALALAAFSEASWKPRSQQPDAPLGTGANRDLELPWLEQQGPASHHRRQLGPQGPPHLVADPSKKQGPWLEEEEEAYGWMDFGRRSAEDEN

Chain of UniProt P06307 (P06307 whole entry, looked up): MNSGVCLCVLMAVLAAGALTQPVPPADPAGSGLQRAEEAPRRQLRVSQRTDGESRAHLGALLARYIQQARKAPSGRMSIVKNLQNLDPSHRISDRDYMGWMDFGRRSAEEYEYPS

- Kd [1]: 1 nM
- Kd (gastrin (Homo sapiens)): 1 nM
Substance: CCK-B receptor (CCK2) (from UniProt P32239)
